Substrate: C/C=C1/[C@H](O[C@@H]2O[C@H](CO)[C@@H](O)[C@H](O)[C@H]2O)OC=C(C(=O)OC)[C@H]1CC(=O)OCCc1ccc(O)c(O)c1
Test: HPLC determination of hydrolysed oleuropein
Format: biochemical, Olea europaea
Details: free purified recombinant enzyme; standard assay

B1: OepGLU (recombinant olive β-glucosidase) (Olea europaea) (protein)
chain: MDIQSNVLTITSGSSPTDTSSNGQAAKSTKERIKRSDFPSDFVFGAATASYQVEGAWNEGGKGMSNWDYFTQSQPGGISDFSNGTIAIDHFNMFKDDVVVMKKLGLKAYRFSLSWPRILPGGRLCHGVSKEGVQFYNDLIDALLAADIEPYITIFHWDIPQCLQLEYGGFLHERVVQDFIEYSEICFWEFGDRVKYWITLNEPWSFTVQGYVAGAFPPNRGVTPKDTEETKKHARLHRGGGKLLTAFKYGNPGTEPYKVAHNLILCHAHAVDIYRTKYQESQGGKIGITNCISWNEPLTDSQEDKDAATRGNDFMLGWFVEPVVTGEYPESMIKNVGDRLPKFSEKEEKLVKGSYDFLGINYYTSTYTSDDPTKPTTDSYLTDSRTKTSHERNKVPIGAQAGSDWLYIVPWGIYRVMVDMKKRYNDPVIYITENGVDEVNDKSKTSTEALKDDIRIHYHQEHLYYLKLAMDQGVNLKGYFIWSLFDNFEWAAGFSVRFGVMYVDYANGRYTRLPKRSAVWWRNFLTKPTAVPLKNEPEKSEDRRKRLRGST
Km: 26.8 mM

From article PMC5682033, “An Oleuropein β-Glucosidase from Olive Fruit Is Involved in Determining the Phenolic Composition of Virgin Olive Oil” (Frontiers in Plant Science, 2017)
